According to patent US20110206727A1:

Biological target: OmpC porin purified from Salmonella typhi (Salmonella enterica subsp. enterica serovar Typhi)
Test: phage display panning on OmpC; frequency among 8 sequenced binding phage

Row | Substance | Frequency (fraction of sequenced phage clones)
1 | OmpC affinity peptide TATYLLD | 0.125
2 | OmpC affinity peptide SLSLIQT | 0.125
